Measurements taken from patent US20240067944A1 (published 2024).

B1: Cmpd #15 (anti-FX/anti-FIX(a) VHH polypeptide derivative) (bispecific antibody)
chain: DVQLVESGGGVVQPGGSLQLSCAASGGTKRRLAMGWFRQAPGQEREWVAAISRRGGSTNYADSVKGRFTISRDNSKNTVYLQMDSLRPEDTALYYCAADDSVGDGYLDYWGQGTLVTVSSGQAPGQEVQLVESGGGVVQPGGSLQLSCAASGRTFNIYTMSWFRQAPGQEREFVAGLRWTDSSTEYADSVKGRFTISRDNSKNTVYLQMDSLRPEDTALYYCAADRSFLFAQALGATKNYEYWGQGTLVTVSSGQACPC
modifications: C16 diacid protractor (P2) via linker LP1 on Cys4 and Cys6 in C-term extension (SEQ ID NO:9)
notes: Single chain of two VHH: anti-FX (N-terminal) and anti-FIX(a) (C-terminal); also called VHH1.15-L1-2-VHH2.15-E
B2: Cmpd #6 (anti-FX/anti-FIX(a) VHH polypeptide derivative) (bispecific antibody)
chain: DVQLVESGGGVVQPGGSLQLSCAASGRTHSRYAMGWFRQAPGQEREFVAAISRRGGSTNYADSVKGRFTISRDNSKNTVYLQMDSLRPEDTALYYCAADDSSGDGYLDYWGQGTLVTVSSGGGGSGGGSEVQLVESGGGVVQPGGSLQLSCAASGRTFNIYTMSWFRQAPGQEREFVAGLRWTDSSTEYADSVKGRFTISRDNSKNTVYLQMDSLRPEDTALYYCAADRSFLFAQALGATKNYEYWGQGTLVTVSSGGGGCSCHHHHHH
modifications: C16 diacid protractor (P2) via linker LP1 on Cys5 and Cys7 in C-term extension (SEQ ID NO: 8)
notes: Single chain of two VHH: anti-FX (N-terminal) and anti-FIX(a) (C-terminal)

Columns and labels:
[1] = biological target: human plasma-derived FX (Haematologic Technologies Inc, USA) (human) (UniProt P00742); assay: cell-based or functional assay
Chain of human plasma-derived FX (Haematologic Technologies Inc, USA) (human) (P00742 41-179, chain 1 of 2): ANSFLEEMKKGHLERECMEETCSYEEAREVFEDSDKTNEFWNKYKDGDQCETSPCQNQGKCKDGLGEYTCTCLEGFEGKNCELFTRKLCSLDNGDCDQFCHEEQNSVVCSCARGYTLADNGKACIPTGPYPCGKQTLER
Chain of human plasma-derived FX (Haematologic Technologies Inc, USA) (human) (P00742 183-488, chain 2 of 2): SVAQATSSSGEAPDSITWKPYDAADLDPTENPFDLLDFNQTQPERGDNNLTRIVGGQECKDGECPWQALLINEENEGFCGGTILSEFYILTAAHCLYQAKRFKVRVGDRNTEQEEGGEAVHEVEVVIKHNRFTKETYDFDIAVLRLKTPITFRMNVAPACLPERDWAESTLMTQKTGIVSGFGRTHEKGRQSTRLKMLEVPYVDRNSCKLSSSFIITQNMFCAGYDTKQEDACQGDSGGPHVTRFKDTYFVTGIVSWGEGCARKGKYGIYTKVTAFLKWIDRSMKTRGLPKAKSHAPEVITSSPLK

[2] = biological target: T1, human plasma-derived FX (Haematologic Technologies Inc, USA) (human, UniProt P00742 41-179; P00742 183-488); assay: cell-based or functional assay
T1 sequence (P00742 41-179, chain 1 of 2): as the sequence (P00742 41-179, chain 1 of 2) above
T1 sequence (P00742 183-488, chain 2 of 2): as the sequence (P00742 183-488, chain 2 of 2) above

[3] = biological target: T1, human plasma-derived FX (Haematologic …); assay: SPR, FX captured on immobilised anti-GLA-FX antibody, steady state analysis, 25 C
Method: Briefly, an anti-GLA-FX, prepared recombinantly as described above, was immobilised on a CM4 sensor chip or a Xantec HLC200M using standard amine coupling chemistry at pH 5. 10 nM FX (Haematologic Technologies, USA) was injected at a flow rate of 10 μL/min for 30 seconds. Subsequently 1000, 100, 10, 1, 0.1 and 0 nM of VHH polypeptide compound, according to Table 9, below were injected at a flow rate of 50 μL/min for 200 seconds to allow for binding to FX followed by a flow of 10 minutes with a running buffer (10 mM HEPES, 150 mM NaCl, 5 mM CaCl₂), 0.05% (v/v) Surfactant P20, 1 mg/mL bovine serum albumin, pH 7.4) injection allowing for dissociation from FX. The running buffer was also used for dilution of anti-FX VHH polypeptide compounds. Regeneration of the chip was achieved using a regeneration buffer consisting of 50 mM EDTA in running buffer, 30 seconds contact time, and a 30 μL/min flow rate. The binding data were collected at 25° C. and were analysed according to a 1:1 model using BiaEvaluation 4.1 supplied by the manufacturer (Biacore AB, Uppsala or Bruker Analyser).
(§1) Therefore, the reported KD values are determined based on steady state analysis.

[4] = biological target: T2, Benefix (Pfizer Inc, USA), FIX (human, UniProt P00740 47-461); assay: SPR, FIX (Benefix) captured on immobilised anti-GLA-FIX antibody, steady state analysis, 25 C
T2 construct: Bought product; also called FIX (Benefix®)
T2 sequence (P00740 47-461 T194A limits assumed): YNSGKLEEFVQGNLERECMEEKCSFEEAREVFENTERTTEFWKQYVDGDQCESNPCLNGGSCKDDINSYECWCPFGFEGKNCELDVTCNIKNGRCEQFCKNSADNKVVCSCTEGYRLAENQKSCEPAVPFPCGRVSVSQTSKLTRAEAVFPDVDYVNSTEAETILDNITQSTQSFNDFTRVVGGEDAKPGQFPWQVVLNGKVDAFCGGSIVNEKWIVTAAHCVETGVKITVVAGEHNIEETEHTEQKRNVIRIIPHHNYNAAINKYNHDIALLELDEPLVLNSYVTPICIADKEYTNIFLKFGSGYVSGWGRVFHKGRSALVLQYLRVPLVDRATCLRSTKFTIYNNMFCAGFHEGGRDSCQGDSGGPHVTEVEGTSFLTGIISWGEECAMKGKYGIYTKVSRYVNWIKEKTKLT
Method: Briefly, anti-GLA-FIX, prepared recombinantly as described above, was immobilised on a CM4 sensor chip or a Xantec HLC200M using standard amine coupling chemistry at pH 5. FIX (10 nM) was injected at a flow rate of 10 μL/min for 1 minute. Subsequently 1000, 100, 10, 1, 0.1 and 0 nM of VHH polypeptide compound were injected at a flow rate of 30 μL/min for 4 minutes to allow for binding to the FIX (Benefix®) followed by a flow of 5 minutes running buffer (10 mM HEPES, 150 mM NaCl, 5 mM CaCl₂), 0.05% (v/v) Surfactant P20, 1 mg/mL bovine serum albumin, pH 7.4) injection allowing for dissociation from FIX. The running buffer was also used for dilution of anti-FIX VHH polypeptide compounds. Regeneration of the chip was achieved using a regeneration buffer consisting of 50 mM EDTA in running buffer, 30 seconds contact time, and a 30 μL/min flow rate. The binding data were collected at 25° C. and were analysed according to a 1:1 model using BiaEvaluation 4.1 supplied by the manufacturer (Biacore AB, Uppsala).
as §1

Molecule | KM (nM) of FX activation by 0.1 nM FIXa on phospholipid vesicles with 300 nM antibody [1] [nM] | kcat/KM (1/(min * nM)) of FX activation by 0.1 nM FIXa with 300 nM antibody [1] [M⁻¹ s⁻¹] | KM (nM) of FX activation by 0.1 nM FIXa on phospholipid vesicles with 5 nM compound [2] [nM] | kcat/KM (1/(min * nM)) of FX activation by 0.1 nM FIXa with 5 nM compound [2] [M⁻¹ s⁻¹] | Kd [3] [nM] | Kd [4] [nM]
emicizumab sequence identical analogue (SIA) (bispecific antibody) | 53.5 | 500000 |  |  |  | 
B1 |  |  | 6.9 | 4.17e+06 | 350 | 3
B2 |  |  | 5.9 | 5.5e+06 | 232 | 4.8
